Measurements from the supplement of paper PMC10567573.

B1: VENTX (parent)
chain: VFQHHQYLSPLERKRLAREMQLSE
B2: SPSB4 (parent)
chain: LDMDEGTLSFIVDGQYLGVAFRGL

Variants of: B1
Test: protein stability index of a GFP-peptide fusion (GPS, HEK-293T) (PSI 1-6); higher = more stable
Conditions: c terminus: a fixed tail appended
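Further: lentivirally expressed fusions sorted by FACS into six bins by GFP to DsRed ratio, PSI derived from sequencing read proportions per bin multiplied by bin number.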

Protein stability index of substitutions, site by site:
M20: T 2.36, S 2.62, V 2.29, N 2.53, Q 2.6, D 3.1, H 2.57, G 2.71, C 3.43, L 2.75, K 2.54, W 1.67, P 2.78, E 3.28, R 3.25, Y 2.96, I 2.39, A 2.8, F 2.04
A17: S 3.1, G 2.69, L 2.79, I 2.36, R 2.98, E 2.93, Y 3.02, M 2.32, K 2.75, D 2.45, H 2.24, N 2.38, P 2.98, T 2.97, Q 2.59, V 2.14, C 1.84, F 2.5, W 2.24
K14: R 2.67, G 2.39, N 2.83, F 1.75, D 3.01, V 2.63, Q 2.12, M 3.11, S 2.81, W 1.81, T 2.58, H 1.97, L 2.19, P 2.4, E 3.3, Y 2.58, I 2.88
E19: T 2.16, M 1.78, W 1.91, D 2.67, H 2.17, R 2.38, Q 3.09, S 2.42, A 2.08, K 1.94, V 1.91, F 1.76, L 1.81, N 3.28, I 1.86, G 2.06, P 2.44, C 1.91, Y 1.91
L22: R 2.44, A 2.72, D 3.29, W 1.96, V 2.27, I 1.93, Q 2.38, N 3.04, C 2.84, M 2.42, F 1.83, T 3.12, G 1.89, Y 2.17, E 2.85, P 2.68, S 2.56, H 2.93, K 3.62
R15: N 2.85, W 2.21, F 1.72, T 2.97, I 2.09, C 1.99, S 1.97, M 2.02, H 2.54, K 2.44, Q 2.57, E 2.41, G 2.6, D 2.6, Y 2.04, V 1.92, P 2.36, A 1.79, L 2.02
L16: P 2.78, F 2.28, A 2, R 2.33, K 2.52, E 3.1, D 3.03, N 2.92, S 2.8, V 2.75, Q 2.7, W 2.01, C 2.62, I 2.71, H 2.82, Y 2.31, M 2.48, G 2.9, T 2.71
Q21: M 2.06, H 2.68, Y 3.06, I 2.32, K 2.66, W 2.43, D 3.61, S 2.77, R 2.99, C 2.5, L 2.59, G 2.51, V 2.44, A 2.49, T 2.49, F 1.98, P 2.64, N 2.29, E 2.54
E24: A 2.14, K 2.29, H 2.47, R 1.95, P 2.1, G 2.3, D 2.48, W 2.76, L 2.07, C 1.82, F 1.93, S 2.65, V 1.39, Y 2.07, I 2.23, T 2.27, Q 2.5, M 2.39, N 2.37
R18: A 2.28, Q 2.73, N 2.34, H 2.74, G 2.68, D 2.77, Y 2, S 3, K 2.65, F 2.21, C 2.58, T 2.9, I 2.67, E 2.8, W 2.21, P 2.13, V 1.63, M 2.21, L 2.33
S23: I 1.97, P 2.78, G 2.5, T 2.44, M 2.4, Q 3.04, Y 2.42, H 2.37, W 2.04, F 2.98, C 2.41, K 2.22, A 3.5, L 2.84, N 2.25, R 2.33, V 2.18, D 2.66, E 3.23

Variants of: B2
Test: as above
Conditions: c terminus: a fixed tail appended

Protein stability index of substitutions, site by site:
D2: I 2.56, E 2.68, R 2.74, P 2.26, Q 1.65, M 2.62, S 2.1, A 2.04, H 2.12, T 3.9, V 2.35, L 2.87, W 2.23, Y 2.74, K 1.64
L1: D 1.31, N 1.28, R 2.09, W 2.76, T 1.86, I 2.59, V 2.51, S 1.71, M 2.75, C 3.04, A 1.83, E 1.66, K 1.27, H 2.12, F 2.48, Q 1.53, G 1.65, Y 1.32, P 1.96
G6: N 3.5, Y 3.87, P 1.72, C 3.03, W 2.88, I 2.38, R 2.28, Q 3.01, T 2.32, K 2.78, E 1.98, S 4.16, M 2.66, D 1.87, A 3.24, F 2.25, H 2.65
E5: Y 2.27, F 2.59, H 3.53, W 3.01, I 3.72, D 2.77, P 1.42, C 3.63, N 3.71, Q 2.7, G 1.85, V 3.95, M 2.56, R 1.9, S 2.79, L 2.51
T7: N 1.23, E 1.31, Y 2.04, D 2.11, Q 3.36, P 1.64, H 1.94, M 2.53, I 2.18, F 1.81, G 2.27, K 2.03, L 1.99, W 3.12, A 2.34, S 3.54, R 1.75, V 1.86
L8: N 1.86, F 2.3, G 1.76, A 1.27, H 1.55, K 1.47, D 2.21, E 1.94, C 3.35, M 2.72, I 2.43
D4: A 1.71, P 1.66, V 2.95, N 1.93, S 2.52, K 2.15, H 3.59, C 1.66, Q 2.4, G 2.73, L 4.51, R 2.39, T 2.45, I 3.21, M 3.51
M3: V 2.67, H 2.39, N 1.52, A 2.05, Q 2.68, F 2.33, K 2.9, L 3.27, D 1.59, G 2.09, P 1.74, I 1.33, S 1.77, E 1.42, C 2.17, R 2.68
